The series concerns the molecule itself. Description: cross-linking.

B1: TolC Y362F/R367E (YFRE^His), leaky/open mutant with a C-terminal 6His-tag (natural protein)
chain: ENLMQVYQQARLSNPELRKSAADRDAAFEKINEARSPLLPQLGLGADYTYSNGYRDANGINSNATSASLQLTQSIFDMSKWRALTLQEKAAGIQDVTYQTDQQTLILNTATAYFNVLNAIDVLSYTQAQKEAIYRQLDQTTQRFNVGLVAITDVQNARAQYDTVLANEVTARNNLDNAVEQLRQITGNYYPELAALNVENFKTDKPQPVNALLKEAEKRNLSLLQARLSQDLAREQIRQAQDGHLPTLDLTASTGISDTSYSGSKTRGAAGTQYDDSNMGQNKVGLSFSLPIYQGGMVNSQVKQAQYNFVGASEQLESAHRSVVQTVRSSFNNINASISSINAYKQAVVSAQSSLDAMEAGFSVGTETIVDVLDATTTLYNAKQELANARYNYLINQLNIKSALGTLNEQDLLALNNALSKPVSTNPENVAPQTPEQNAIADGYAPDSPAPVVQQTSARTTTSNGHNPFRN
What is called stoichiometry N is a count of units in the complex or per binding partner. As for B1, the “stoichiometry N” value was 3.

The values above are taken from article PMC3581732 (Molecular microbiology, 2013).
